± gives the standard deviation of the averaged measurements.
Legend:
hTERT-HMEC = assay: percentage of EdU-negative (G0-arrested) nuclei per well, 72 h; higher = more G0 arrest; conditions: reference: sequence is the full UniProt precursor, the tested protein was the secreted form or ectodomain
MCF7 = assay: as above; conditions: reference: sequence is the full UniProt precursor, the tested protein was the secreted form or ectodomain
[1] = protein concentration 0.0225 µM
[2] = protein concentration 0.0357143 µM
[3] = protein concentration 0.357143 µM
[4] = protein concentration 0.014515 µM
[5] = protein concentration 0.14515 µM
[6] = protein concentration 0.00742857 µM
[7] = protein concentration 0.0742857 µM
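Also: secreted proteins added to cultured cells, EdU pulse at the end, nuclei found by Hoechst imaging, EdU status from nuclear versus surrounding ring intensity ratio, PBS as neutral control.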

Sequence	percentage of EdU-negative (hTERT-HMEC; [1])	percentage of EdU-negative (hTERT-HMEC; protein concentration 0.225 µM)	percentage of EdU-negative (MCF7; [1])	percentage of EdU-negative (MCF7; protein concentration 0.225 µM)	percentage of EdU-negative (hTERT-HMEC; [2])	percentage of EdU-negative (hTERT-HMEC; [3])	percentage of EdU-negative (MCF7; [2])	percentage of EdU-negative (MCF7; [3])	also measured
MWSLLLCGLSIALPLSVTADGCKDIFMKNEILSASQPFAFNCTFPPITSGEVSVTWYKNSSKIPVSKIIQSRIHQDETWILFLPMEWGDSGVYQCVIKGRDSCHRIHVNLTVFEKHWCDTSIGGLPNLSDEYKQILHLGKDDSLTCHLHFPKSCVLGPIKWYKDCNEIKGERFTVLETRLLVSNVSAEDRGNYACQAILTHSGKQYEVLNGITVSITERAGYGGSVPKIIYPKNHSIEVQLGTTLIVDCNVTDTKDNTNLRCWRVNNTLVDDYYDESKRIREGVETHVSFREHNLYTVNITFLEVKMEDYGLPFMCHAGVSTAYIILQLPAPDFRAYLIGGLIALVAVAVSVVYIYNIFKIDIVLWYRSAFHSTETIVDGKLYDAYVLYPKPHKESQRHAVDALVLNILPEVLERQCGYKLFIFGRDEFPGQAVANVIDENVKLCRRLIVIVVPESLGFGLLKNLSEEQIAVYSALIQDGMKVILIELEKIEDYTVMPESIQYIKQKHGAIRWHGDFTEQSQCMKTKFWKTVRYHMPPRRCRPFPPVQLLQHTPCYRTAGPELGSRRKKCTLTTG [Q9HB29]	5.48 ± 0.32%	6.16 ± 0.14%	24.7 ± 2.6%	24 ± 0.89%	–	–	–	–	–
MWLRAFILATLSASAAWGHPSSPPVVDTVHGKVLGKFVSLEGFAQPVAIFLGIPFAKPPLGPLRFTPPQPAEPWSFVKNATSYPPMCTQDPKAGQLLSELFTNRKENIPLKLSEDCLYLNIYTPADLTKKNRLPVMVWIHGGGLMVGAASTYDGLALAAHENVVVVTIQYRLGIWGFFSTGDEHSRGNWGHLDQVAALRWVQDNIASFGGNPGSVTIFGESAGGESVSVLVLSPLAKNLFHRAISESGVALTSVLVKKGDVKPLAEQIAITAGCKTTTSAVMVHCLRQKTEEELLETTLKMKFLSLDLQGDPRESQPLLGTVIDGMLLLKTPEELQAERNFHTVPYMVGINKQEFGWLIPMQLMSYPLSEGQLDQKTAMSLLWKSYPLVCIAKELIPEATEKYLGGTDDTVKKKDLFLDLIADVMFGVPSVIVARNHRDAGAPTYMYEFQYRPSFSSDMKPKTVIGDHGDELFSVFGAPFLKEGASEEEIRLSKMVMKFWANFARNGNPNGEGLPHWPEYNQKEGYLQIGANTQAAQKLKDKEVAFWTNLFAKKAVEKPPQTEHIEL	–	–	–	–	4.96 ± 0.78%	6.05 ± 0.03%	23.32 ± 0.21%	24.5 ± 1.9%	–
MVMLLLLLSALAGLFGAAEGQAFHLGKCPNPPVQENFDVNKYLGRWYEIEKIPTTFENGRCIQANYSLMENGKIKVLNQELRADGTVNQIEGEATPVNLTEPAKLEVKFSWFMPSAPYWILATDYENYALVYSCTCIIQLFHVDFAWILARNPNLPPETVDSLKNILTSNNIDVKKMTVTDQVNCPKLS	4.945 ± 0.022%	4.745 ± 0.02%	24.66 ± 0.099%	25.9 ± 3%	–	–	–	–	–
MASRLTLLTLLLLLLAGDRASSNPNATSSSSQDPESLQDRGEGKVATTVISKMLFVEPILEVSSLPTTNSTTNSATKITANTTDEPTTQPTTEPTTQPTIQPTQPTTQLPTDSPTQPTTGSFCPGPVTLCSDLESHSTEAVLGDALVDFSLKLYHAFSAMKKVETNMAFSPFSIASLLTQVLLGAGENTKTNLESILSYPKDFTCVHQALKGFTTKGVTSVSQIFHSPDLAIRDTFVNASRTLYSSSPRVLSNNSDANLELINTWVAKNTNNKISRLLDSLPSDTRLVLLNAIYLSAKWKTTFDPKKTRMEPFHFKNSVIKVPMMNSKKYPVAHFIDQTLKAKVGQLQLSHNLSLVILVPQNLKHRLEDMEQALSPSVFKAIMEKLEMSKFQPTLLTLPRIKVTTSQDMLSIMEKLEFFDFSYDLNLCGLTEDPDLQVSAMQHQTVLELTETGVEAAAASAISVARTLLVFEVQQPFLFVLWDQQHKFPVFMGRVYDPRA	–	–	–	–	–	–	–	–	percentage of EdU-negative (hTERT-HMEC; [4]): 5.48 ± 0.2%; percentage of EdU-negative (hTERT-HMEC; [5]): 5.33 ± 0.56%; percentage of EdU-negative (MCF7; [4]): 25.6 ± 1.5%; percentage of EdU-negative (MCF7; [5]): 26 ± 0.75%
MAAAWTVVLVTLVLGLAVAGPVPTSKPTTTGKGCHIGRFKSLSPQELASFKKARDALEESLKLKNWSCSSPVFPGNWDLRLLQVRERPVALEAELALTLKVLEAAAGPALEDVLDQPLHTLHHILSQLQACIQPQPTAGPRPRGRLHHWLHRLQEAPKKESAGCLEASVTFNLFRLLTRDLKYVADGNLCLRTSTHPEST [Q8IU54]	–	–	–	–	7.03 ± 0.88%	20.5 ± 5.7%	25.7 ± 0.7%	26.7 ± 1.7%	–
MRSLGALLLLLSACLAVSAGPVPTPPDNIQVQENFNISRIYGKWYNLAIGSTCPWLKKIMDRMTVSTLVLGEGATEAEISMTSTRWRKGVCEETSGAYEKTDTDGKFLYHKSKWNITMESYVVHTNYDEYAIFLTKKFSRHHGPTITAKLYGRAPQLRETLLQDFRVVAQGVGIPEDSIFTMADRGECVPGEQEPEPILIPRVRRAVLPQEEEGSGGGQLVTEVTKKEDSCQLGYSAGPCMGMTSRYFYNGTSMACETFQYGGCMGNGNNFVTEKECLQTCRTVAACNLPIVRGPCRAFIQLWAFDAVKGKCVLFPYGGCQGNGNKFYSEKECREYCGVPGDGDEELLRFSN	5.59 ± 1.2%	5.52 ± 0.57%	23.9 ± 0.98%	25.2 ± 1.6%	–	–	–	–	percentage of EdU-negative (hTERT-HMEC; [6]): 4.92 ± 0.19%; percentage of EdU-negative (hTERT-HMEC; [7]): 7.02 ± 1.1%; percentage of EdU-negative (MCF7; [6]): 27.22 ± 0.12%; percentage of EdU-negative (MCF7; [7]): 26 ± 2.5%
